Tests used:
human plasma kallikrein = target: T1, human plasma kallikrein (human, UniProt P03952 20-390; P03952 391-638); assay: Ki,app, enzyme inhibition of pKal; antibody format not stated
T1 construct: two disulfide linked chains; also called pKal; human pKal

mouse plasma kallikrein = target: T2, mouse plasma kallikrein (mouse, UniProt P26262 20-638, limits assumed); assay: apparent Ki (Ki,app), inhibition of mouse pKal enzyme activity
T2 construct: also called mouse pKal
Description: (§1) Apparent Inhibition constants (K_{i,app} values) were measured by pre-incubating enzyme and inhibitor solutions prior to initiating the reactions with substrate. Enzyme and inhibitor were pre-incubated for 2 hours at 30° C. in a 96-well plate by adding 10 μL of a 10× enzyme solution and 10 μL of 10× inhibitor solutions to 70 μL of reaction buffer. Reactions were initiated by the addition of 10 μL of a 10× concentrated stock of substrate, and were monitored at 30° C. in a fluorescence plate reader with the excitation and emission wavelengths set at 360 nm/460 nm, respectively. Kinetic data were acquired by the increase in fluorescence, and initial rates for each condition were plotted against the total inhibitor concentration. The data was fit to the following equation for tight binding inhibitors: […]

[1] = target: T3, human plasma kallikrein (active form) (human, UniProt P03952 20-390; P03952 391-638); assay: apparent Ki (Ki,app), inhibition of human pKal enzyme activity
T3 construct: also called pKal; human pKal
Description: as §1

[2] = target: T4, wild type pKal catalytic domain (human, UniProt P03952 391-638, limits assumed); assay: apparent Ki (Ki,app), enzyme inhibition, wild type pKal catalytic domain
T4 construct: domain: catalytic domain; also called WT cat; Domain; not shown: His tag fusion
Description: as §1

[3] = target: T5, pKal catalytic domain Mutant 2 (human, UniProt P03952 391-638, limits assumed); assay: apparent Ki (Ki,app), enzyme inhibition, pKal catalytic domain Mutant 2
T5 construct: domain: catalytic domain; Expressed in Pichia pastoris, purified by IMAC; not shown: His tag fusion
Description: as §1

[4] = target: T6, pKal catalytic domain Mutant 1 (human, UniProt P03952 391-638, limits assumed); assay: apparent Ki (Ki,app), enzyme inhibition, pKal catalytic domain Mutant 1
T6 construct: domain: catalytic domain; Expressed in Pichia pastoris, purified by IMAC; not shown: His tag fusion
Description: as §1

[5] = target: T7, pKal catalytic domain Mutant 1 (human, UniProt P03952 391-638, limits assumed); assay: Ki,app: enzyme inhibition, fluorescent substrate, 2 h pre-incubation at 30 C, tight-binding fit
T7 construct: domain: catalytic domain; Expressed in Pichia pastoris, purified by IMAC; not shown: His tag fusion
Description: as §1

[6] = target: T8, wild type pKal catalytic domain (human, UniProt P03952 391-638, limits assumed); assay: as above
T8 construct: domain: catalytic domain; The expression in Pichia pastoris with a His tag and IMAC purification is told of the mutants; also called WT cat; Domain; not shown: His tag fusion
Description: as §1

[7] = target: T9, human plasma kallikrein (full length, active) (human, UniProt P03952 20-390; P03952 391-638); assay: as above
T9 construct: two disulfide linked polypeptides; also called Full length pKal; pKal
Description: as §1

[8] = target: T10, pKal catalytic domain Mutant 2 (human, UniProt P03952 391-638, limits assumed); assay: as above
T10 construct: domain: catalytic domain; Expressed in Pichia pastoris, purified by IMAC; not shown: His tag fusion
Description: as §1

T2 sequence (P26262 20-638 limits assumed): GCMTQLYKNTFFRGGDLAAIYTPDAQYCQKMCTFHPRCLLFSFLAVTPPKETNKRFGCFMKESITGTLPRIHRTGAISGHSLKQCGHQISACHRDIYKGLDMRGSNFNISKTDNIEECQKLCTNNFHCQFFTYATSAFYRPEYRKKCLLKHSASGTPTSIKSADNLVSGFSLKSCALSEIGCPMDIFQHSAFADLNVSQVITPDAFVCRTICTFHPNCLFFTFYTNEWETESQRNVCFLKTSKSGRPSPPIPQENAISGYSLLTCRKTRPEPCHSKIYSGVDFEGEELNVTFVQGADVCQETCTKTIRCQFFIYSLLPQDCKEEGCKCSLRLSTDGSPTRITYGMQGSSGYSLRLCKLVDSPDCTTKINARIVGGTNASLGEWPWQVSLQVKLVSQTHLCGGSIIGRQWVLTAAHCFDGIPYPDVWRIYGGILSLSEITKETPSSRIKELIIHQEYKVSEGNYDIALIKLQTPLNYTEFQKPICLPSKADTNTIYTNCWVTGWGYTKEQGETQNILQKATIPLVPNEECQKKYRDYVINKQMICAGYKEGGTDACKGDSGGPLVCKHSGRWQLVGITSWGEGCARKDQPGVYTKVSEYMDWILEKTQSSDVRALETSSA
T9 sequence (P03952 20-390, chain 1 of 2): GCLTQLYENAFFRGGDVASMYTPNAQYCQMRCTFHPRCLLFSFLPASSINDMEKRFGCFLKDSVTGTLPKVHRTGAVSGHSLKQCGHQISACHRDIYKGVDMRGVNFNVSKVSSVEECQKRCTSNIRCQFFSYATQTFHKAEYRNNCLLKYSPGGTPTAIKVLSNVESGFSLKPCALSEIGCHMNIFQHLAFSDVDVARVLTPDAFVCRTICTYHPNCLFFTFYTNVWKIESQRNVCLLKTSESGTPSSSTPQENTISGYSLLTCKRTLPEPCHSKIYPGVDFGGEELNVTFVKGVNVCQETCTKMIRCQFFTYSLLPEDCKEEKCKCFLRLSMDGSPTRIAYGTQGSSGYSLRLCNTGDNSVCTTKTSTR
T9 sequence (P03952 391-638, chain 2 of 2): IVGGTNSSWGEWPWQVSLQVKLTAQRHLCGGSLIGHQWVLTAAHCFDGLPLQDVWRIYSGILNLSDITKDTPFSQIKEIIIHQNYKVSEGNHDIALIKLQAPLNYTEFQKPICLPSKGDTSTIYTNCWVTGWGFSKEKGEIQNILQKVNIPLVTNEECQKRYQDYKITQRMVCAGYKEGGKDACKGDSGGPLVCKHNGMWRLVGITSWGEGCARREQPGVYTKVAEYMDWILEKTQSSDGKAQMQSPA
T3 sequence (P03952 20-390, chain 1 of 2): as the sequence (P03952 20-390, chain 1 of 2) above
T3 sequence (P03952 391-638, chain 2 of 2): as the sequence (P03952 391-638, chain 2 of 2) above
T1 sequence (P03952 20-390, chain 1 of 2): as the sequence (P03952 20-390, chain 1 of 2) above
T1 sequence (P03952 391-638, chain 2 of 2): as the sequence (P03952 391-638, chain 2 of 2) above

Row | Ki (human plasma kallikrein) [pM] | Ki (mouse plasma kallikrein) [pM] | Ki [1] [pM] | Ki [2] [pM] | Ki [3] [pM] | Ki [4] [pM] | Ki [5] [pM] | Ki [6] [pM] | Ki [7] [pM] | Ki [8] [pM] | Binder
1 | 6100 | – | – | – | – | – | – | – | – | – | X59-C07 (antibody, V domains shown, Found by ROLIC light chain shuffling) VH: EVQLLESGGGLVQPGGSLRLSCAASGFTFSHYLMTWVRQAPGKGLEWVSYISPSGGHTIYADSVKGRFTISRDNSKNTLYLQMNSLRAEDTAVYYCARVARGIAARSRTSYFDYWGQGTLVTVSS VL: DIQMTQSPSSLSASVGDRVTVTCRAGRSISTYVNWYQQKPGKAPKLLIYAASSLQSGVPSRFSGSRSGTDFTLTISSLQPEDFATYYCQQSQSTPYTFGQGTKLEVK
2 | 2000 | – | – | – | – | – | – | – | – | – | X60-D01 (antibody, V domains shown, Found by ROLIC light chain shuffling) VH: EVQLLESGGGLVQPGGSLRLSCAASGFTFSHYLMTWVRQAPGKGLEWVSYISPSGGHTIYADSVKGRFTISRDNSKNTLYLQMNSLRAEDTAVYYCARVARGIAARSRTSYFDYWGQGTLVTVSS VL: DIQMTQSPGTLSLSPGERATLSCRASQIVSSRYLAWYQQRPGQAPRLLIYGAASRATGIPDRFSGSGSGTDFTLTISSLQAEDFATYYCQQTYSSPFTFGQGTKMEIK
3 | – | 200 | 5000 | – | – | – | – | – | – | – | M160-G12 (antibody, V domains shown, also called R84-D02) VH: EVQLLESGGGLVQPGGSLRLSCAASGFTFSHYLMTWVRQAPGKGLEWVSYISPSGGHTIYADSVKGRFTISRDNSKNTLYLQMNSLRAEDTAVYYCARVARGIAARSRTSYFDYWGQGTLVTVSS VL: DIQMTQSPSFLSASVGDRVTITCRASQGISSYLAWYQQKPGKAPKLLIYAASTLQSGVPSRFSGSGSGTEFTLTISSLQPEDFATYYCQQLNSYPLTFGGGTKVEIK
4 | – | 800000 | 790 | 160 | 100 | 230 | – | – | – | – | M145-D11 (Fab, V domains shown, also called 559A-M145-D11 (sFab); 559A-M0145-D11) VH: EVQLLESGGGLVQPGGSLRLSCAASGFTFSHYRMSWVRQAPGKGLEWVSSIYPSGGRTVYADSVKGRFTISRDNSKNTLYLQMNSLRAEDTAVYYCAKDKFEWRLLFRGIGNDAFDIWGQGTMVTVSS VL: QSVLTQPPSVSVSPGQTASITCSGDKLGDKYTSWYQQRPGQSPVLVIYQDIKRPSGIPERFSGSNSGNTATLTISGTQAMDEADYYCQAWDSPNARVFGSGTKVTVL [M145-D11, listing 1 of 2 here]
5 | – | – | – | – | – | – | 230 | 160 | 790 | 100 | M145-D11 (Fab, V domains shown, also called 559A-M145-D11 (sFab); 559A-M0145-D11) VH: EVQLLESGGGLVQPGGSLRLSCAASGFTFSHYRMSWVRQAPGKGLEWVSSIYPSGGRTVYADSVKGRFTISRDNSKNTLYLQMNSLRAEDTAVYYCAKDKFEWRLLFRGIGNDAFDIWGQGTMVTVSS VL: QSVLTQPPSVSVSPGQTASITCSGDKLGDKYTSWYQQRPGQSPVLVIYQDIKRPSGIPERFSGSNSGNTATLTISGTQAMDEADYYCQAWDSPNARVFGSGTKVTVL [M145-D11, listing 2 of 2 here]
6 | – | – | – | – | – | – | 260 | 180 | 180 | 2500 | X115-D01 (antibody, V domains shown, only variable domains given; also called 559A-X115-D01; 559A-X0115-D01) VH: EVQLLESGGGLVQPGGSLRLSCAASGFTFSIYSMHWVRQAPGKGLEWVSSIYPSRGMTWYADSVKGRFTISRDNSKNTLYLQMNSLRAEDTAVYYCAYRRTGIPRRDAFDIWGQGTMVTVSS VL: DIQMTQSPSTLSASVGDRVTITCRASQSISSWLAWYQQKPGKAPKLLIYKASTLESGVPSRFSGSGSGTEFTLTISSLQPDDFATYYCQQYNTYWTFGQGTKVEIK
7 | – | – | – | – | – | – | 400 | 300 | 600 | 2200 | X115-G04 (antibody, V domains shown, only variable domains given; also called 559A-X115-G04; 559A-X0115-G04) VH: EVQLLESGGGLVQPGGSLRLSCAASGFTFSHYIMMWVRQAPGKGLEWVSGIYSSGGITVYADSVKGRFTISRDNSKNTLYLQMNSLRAEDTAVYYCAYRRTGVPRRDEFDIWGQGTMVTVSS VL: DIQMTQSPSTLSASVGDRVTITCRASQSISSWLAWYQQKPGKAPKLLIYKASTLESGVPSRFSGSGSGTEFTLTISSLQPDDFATYYCQQYNTYWTFGQGTKVEIK
8 | – | – | – | – | – | – | 230 | 160 | 160 | 3700 | X115-A03 (antibody, V domains shown, only variable domains given; also called 559A-X115-A03; 559A-X0115-A03) VH: EVQLLESGGGLVQPGGSLRLSCAASGFTFSHYIMMWVRQAPGKGLEWVSGIYSSGGITVYADSVKGRFTISRDNSKNTLYLQMNSLRAEDTAVYYCAWRRIGVPRRDSFDMWGQGTMVTVSS VL: DIQMTQSPSTLSASVGDRVTITCRASQSISSWLAWYQQKPGKAPKLLIYKASTLESGVPSRFSGSGSGTEFTLTISSLQPDDFATYYCQQYNTYWTFGQGTKVEIK

Second part, the binder before the results:

Row | Binder | Ki (human plasma kallikrein) [pM] | Ki (mouse plasma kallikrein) [pM] | Ki [1] [pM] | Ki [2] [pM] | Ki [3] [pM] | Ki [4] [pM] | Ki [5] [pM] | Ki [6] [pM] | Ki [7] [pM] | Ki [8] [pM]
9 | X115-F02 (Fab, V domains shown, also called 559A-X115-F02; 559A-X0115-F02) VH: EVQLLESGGGLVQPGGSLRLSCAASGFTFSHYIMMWVRQAPGKGLEWVSGIYSSGGITVYADSVKGRFTISRDNSKNTLYLQMNSLRAEDTAVYYCAYRRIGVPRRDEFDIWGQGTMVTVSS VL: DIQMTQSPSTLSASVGDRVTITCRASQSISSWLAWYQQKPGKAPKLLIYKASTLESGVPSRFSGSGSGTEFTLTISSLQPDDFATYYCQQYNTYWTFGQGTKVEIK | – | – | – | – | – | – | 140 | 90 | 89 | 5900
10 | M6-D09 (antibody, V domains shown, also called M06-D09; 559A-M06-D09) VH: EVQLLESGGGLVQPGGSLRLSCAASGFTFSFYYMVWVRQAPGKGLEWVSVIYPSGGITVYADSVKGRFTISRDNSKNTLYLQMNSLRAEDTAVYYCARDKWAVMPPYYYYAMDVWGQGTTVTVSS VL: DIQMTQSPSSLSASVGDRVTITCRASQSIRNYLNWYQQKPGKAPNLLIYAASTLQSGVPARFSGSGSGTDFTLTISSLQPEDFATYYCQQLSGYPHTFGQGTKLEIK | – | 3900 | 5900 | 2500 | 13500 | 3400 | – | – | – | –
11 | M06-D09 (antibody, V domains shown, Only variable domains printed; also called M6-D09; 559A-M06-D09) VH: EVQLLESGGGLVQPGGSLRLSCAASGFTFSFYYMVWVRQAPGKGLEWVSVIYPSGGITVYADSVKGRFTISRDNSKNTLYLQMNSLRAEDTAVYYCARDKWAVMPPYYYYAMDVWGQGTTVTVSS VL: DIQMTQSPSSLSASVGDRVTITCRASQSIRNYLNWYQQKPGKAPNLLIYAASTLQSGVPARFSGSGSGTDFTLTISSLQPEDFATYYCQQLSGYPHTFGQGTKLEIK | – | – | – | – | – | – | 3400 | 2500 | 5900 | 13500
12 | M29-D09 (Fab, V domains shown, also called 559A-M29-D09 (sFab); 559A-M0029-D09) VH: EVQLLESGGGLVQPGGSLRLSCAASGFTFSWYTMVWVRQAPGKGLEWVSYIYPSGGATFYADSVKGRFTISRDNSKNTLYLQMNSLRAEDTAVYYCAMGSYDYIWGFYSDHWGQGTLVTVSS VL: QSALTQPPTVSVSPGQTARITCSGNKLGDKYVAWYQQKPGQSPMLVIYQDTKRPSRVSERFSGSNSANTATLSISGTQALDEADYYCQAWDSSIVIFGGGTRLTVL [M29-D09, listing 1 of 2 here] | – | – | 700 | 240 | 340 | 270 | – | – | – | –
13 | M29-D09 (Fab, V domains shown, also called 559A-M29-D09 (sFab); 559A-M0029-D09) VH: EVQLLESGGGLVQPGGSLRLSCAASGFTFSWYTMVWVRQAPGKGLEWVSYIYPSGGATFYADSVKGRFTISRDNSKNTLYLQMNSLRAEDTAVYYCAMGSYDYIWGFYSDHWGQGTLVTVSS VL: QSALTQPPTVSVSPGQTARITCSGNKLGDKYVAWYQQKPGQSPMLVIYQDTKRPSRVSERFSGSNSANTATLSISGTQALDEADYYCQAWDSSIVIFGGGTRLTVL [M29-D09, listing 2 of 2 here] | – | – | – | – | – | – | 270 | 240 | 700 | 340
14 | M35-G04 (antibody, V domains shown, also called 559A-M35-G04; 559A-M0035-G04) VH: EVQLLESGGGLVQPGGSLRLSCAASGFTFSYYHMSWVRQAPGKGLEWVSVISPSGGSTKYADSVKGRFTISRDNSKNTLYLQMNSLRAEDTAVYYCARGGSSDYAWGSYRRPYYFDYWGQGTLVTVSS VL: DIQMTQSPATLSLSPGERATLSCRASQSVSSYLAWYQQKPGQAPRLLIYDASNRATGIPARFSGSGSGTDFTLTISSLEPEDFAVYYCQQRSNWPRGFTFGPGTKVDIK | – | 8000 | 2900 | 800 | 1100 | 90 | – | – | – | –
15 | M35-G04 (antibody, V domains shown, Only variable domains printed; also called 559A-M35-G04; 559A-M0035-G04) VH: EVQLLESGGGLVQPGGSLRLSCAASGFTFSYYHMSWVRQAPGKGLEWVSVISPSGGSTKYADSVKGRFTISRDNSKNTLYLQMNSLRAEDTAVYYCARGGSSDYAWGSYRRPYYFDYWGQGTLVTVSS VL: DIQMTQSPATLSLSPGERATLSCRASQSVSSYLAWYQQKPGQAPRLLIYDASNRATGIPARFSGSGSGTDFTLTISSLEPEDFAVYYCQQRSNWPRGFTFGPGTKVDIK | – | – | – | – | – | – | 90 | 800 | 2900 | 1100

From patent US9266964
